Laboratory results: US7718413B2, “Glycosylation variants of BACE” (Elan Pharmaceuticals, Inc., priority 2003, dated 2010)
Changes are numbered by the printed parent chain. Names and notes keep the numbering of the source. Values joined by “and” are separate entries in the source; they are usually repeats but may differ in a detail not shown here. Equal entries are not always repeated.

B1: wild type: fully glycosylated soluble BACE truncated after residue 451 with Flag sequence (protein)
chain: TQHGIRLPLRSGLGGAPLGLRLPRETDEEPEEPGRRGSFVEMVDNLRGKSGQGYYVEMTVGSPPQTLNILVDTGSSNFAVGAAPHPFLHRYYQRQLSSTYRDLRKGVYVPYTQGKWEGELGTDLVSIPHGPNVTVRANIAAITESDKFFINGSNWEGILGLAYAEIARPDDSLEPFFDSLVKQTHVPNLFSLQLCGAGFPLNQSEVLASVGGSMIIGGIDHSLYTGSLWYTPIRREWYYEVIIVRVEINGQDLKMDCKEYNYDKSIVDSGTTNLRLPKKVFEAAVKSIKAASSTEKFPDGFWLGEQLVCWQAGTTPWNIFPVISLYLMGEVTNQSFRITILPQQYLRPVEDVATSQDDCYKFAISQSSTGTVMGAVIMEGFYVVFDRARKRIGFAVSACHVHDEFRTAAVEGPFVTLDMEDCGYNIPQTD
modifications: left off: small tags and cut ends
B2: delta 2, 3: BACE variant S174I and N223A (SEQ ID NO:3), made on the 452Flag soluble truncated BACE template (protein)
chain: ETDEEPEEPGRRGSFVEMVDNLRGKSGQGYYVEMTVGSPPQTLNILVDTGSSNFAVGAAPHPFLHRYYQRQLSSTYRDLRKGVYVPYTQGKWEGELGTDLVSIPHGPNVTVRANIAAITESDKFFINGINWEGILGLAYAEIARPDDSLEPFFDSLVKQTHVPNLFSLQLCGAGFPLAQSEVLASVGGSMIIGGIDHSLYTGSLWYTPIRREWYYEVIIVRVEINGQDLKMDCKEYNYDKSIVDSGTTNLRLPKKVFEAAVKSIKAASSTEKFPDGFWLGEQLVCWQAGTTPWNIFPVISLYLMGEVTNQSFRITILPQQYLRPVEDVATSQDDCYKFAISQSSTGTVMGAVIMEGFYVVFDRARKRIGFAVSACHVHDEFRTAAVEGPFVTLDMEDCGYNIPQTD
modifications: Flag tag; Human BACE with serine to isoleucine (S174I) and asparagine to alanine (N223A) mutations.
B3: delta 3: BACE variant N223A (SEQ ID NO:2), made on the 452Flag soluble truncated BACE template (protein)
chain: B2 chain with I129S
modifications: Flag tag; Human BACE with asparagine to alanine (N223A) mutation.

Test system: MBP-C125Swe
Test: β-Secretase assay: cleavage of substrate MBP-C125Swe, ELISA read-out
Type: biochemical
Settings: group mean of 6 samples; 0.02 μL BACE, MBP-C125Swe 220 nM, one hour, 37° C., pH 4.5
Text: Peptide substrate MBP-C125Swe was used for all assays. MBP-C125Swe is a bacterial fusion protein containing maltose binding protein MBP fused to the C-terminal 125 amino acids of the Swedish variant (Lys670Asn, Met671Leu double mutation) of APP. Sinha et al (1999). The C-terminal 125 amino acids were cloned into the expression vector pMALc (New England Biolabs) and transfected into E. coli. The fusion proteins were induced and solubilized by sonication of the pelleted bacteria. The proteins were purified by affinity chromatography on amylose-agarose, made up to 3 M guanidine, and stored in 10 mM Tris, pH 7.5, 0.2% Triton X-100, and 0.15 M guanidine.
All digests were done with 0.02 μL BACE (Δ3, 0.69 μM; Δ2,3 0.77 μM; wild type 0.66 μM) at 37° C. in a total volume of 50 μL 0.06% Triton X-100 and 20 mM sodium acetate, pH 4.5. Samples were incubated with MBP-C125Swe substrate (10 μg/mL, 220 nM) for one hour. Digests were assayed in an ELISA assay, capturing with antibody to MBP and detecting with biotinylated Sw192, a neo-epitope specific antibody recognizing the free C-terminal leucine of the N-terminal product of β-secretase cleavage of the APPSwe sequence. See Seubert. P. et al. Nature 361:260-263 (1993), and Knops, J. et al. J. Biol. Chem. 270:2419-2422 (1995). Product was allowed to bind for 24 hours at 4° C., then quantitated with streptavidin-horse radish peroxidase. Biotinylated peptide corresponding to the N-terminal cleavage product was synthesized and used as a standard.
These values were converted from the above data by the following equation: nM product/hr (ng enzyme)×45 ng enzyme/pm enz× 1/220 nM substrate×⅓,660 sec/hr×50,000 nL/reaction.

Cleavage Product | Molecule
85 pM and 90 pM | B1
109 pM and 108 pM | B2
119 pM and 126 pM | B3

Same assay, conditions: group mean; 0.02 μL BACE, MBP-C125Swe 220 nM, one hour, 37° C., pH 4.5

Molecule | Activity | Substrate Conversion
B1 | 14,308 pM/h/ng enz and 15,177 pM/h/ng enz | 4.05% and 4.30%
B2 | 15,753 pM/h/ng enz and 15,662 pM/h/ng enz | 5.19% and 5.16%
B3 | 19,071 pM/h/ng enz and 20,173 pM/h/ng enz | 5.68% and 6.01%
